The record followed here is US20170065702A1 (CANGENE, published 2017).

The labels stand for the following.
B1: CAN54G2 (antibody, V domains shown)
VH: QVQLQQSGTELVRPGTSVKISCKASGYDFTNFWLGWIKQRPGHGLEWIGDIYPGGDNTYYNEKFKGKVTLTADKSSNTAYMQFSSLTSEDSAVYFCFMILYTLDYWGQGTSVTVSS
VL: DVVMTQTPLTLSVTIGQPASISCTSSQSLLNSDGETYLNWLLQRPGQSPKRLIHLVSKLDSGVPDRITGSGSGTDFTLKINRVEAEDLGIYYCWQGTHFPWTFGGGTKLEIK
B2: CAN30G3 (antibody, V domains shown)
VH: QVQLKESGPGLVAPSQSLSITCTVSGFSLTDYGITWIRQPPGKGLEWLGVIWGGGSAYYNLVLKSRLSISKDNSKSQVFLKMNSLQTDDTAMYYCAKHRTLITTAMDYWGQGISVTVSS
VL: DVLMTQTPLSLPVSLGDQASISCRSSQNIVHSNGNTYLEWYLQKSGQSPKLLIYKVSNRFSGVPDRFSGSGSGTDFTLKISRVEAEDLGVYYCFQGSHFPWTFGGGTKLEIK
B3: CAN30G4 (antibody, V domains shown)
VH: EVKLVESGGGLVKSGGSLKLSCAVSGFTFSTYAMSWVRQIPEKRLEWVATISNGGSYIYYSDSVKGRFTISRDNAKNTLYLQMSSLRSEDTAMYYCARHRESYRYDWFAYWGQGTLVTVSA
VL: B2 VL with N33D, S45P, V56F, F99V, W101P, G105A, I111L
B4: CAN30G5 (antibody, V domains shown)
VH: EVQLVESGGGLVQPKGSLKLSCAASGFAFNSYAMHWVCQAPGKGLEWVARIRIKSGNYATSYAGSVTDRFTVSRDDSQNLFYLQMNNLKTEDTAMYYCVREWEGAMDYWGQGTSVTVSS
VL: DIVLTQSPLSLPVSLGDQASISCRSSQSLVHSNGNTYLHWYLQKPGQSPNLLIYKVSNRFSGVPDRFSGSGSGTDFTLKISRVEAEDLGVYFCSQSTHVPWTFGGGTKLEIK
B5: CAN40G1 (antibody, V domains shown)
VH: EVQLQQSGPELVKPGASVKISCRTSGYTFTEYTIHWVKQSRGKSLEWIGGINPNHGGTLYNQKFKVKATLTVDKSSSTAYMELRSLTSEDSAVYYCARFTYDYWGQGTTLTVSS
VL: DIVLTQSPASLAVSLGQRASISCKASQSVDHDGDSYMNWYQQKPGQPPKLLIYATSNLESGIPARFSGSGSGTDFTLNIHPVEEEDAATYYCQQSYEVPLTFGAGTKLELK
B6: CAN30G1 (antibody, V domains shown)
VH: QIQLVQSGPELKKPGETVKISCKASGYTFTNYGMNWVKQAPGKGLKWMGWINTYTGKPTYVDDFKGRFAFSLETSANTAYLQINNLKNEDTATYFCESGGYDEDYWGQGTTLTVSS
VL: ENVLTQSPAIMSASPGEKVTMTCSASSSVTYMHWYQQKSSTSPKLWIYDTSKLASGVPGRFSGSGSGNSYSLTISSMEAEDVATYYCFQGSGYPYTFGGGTKLEIK

Substitutions are numbered along the chain they refer to.

In one assay the target is T1, Marburg virus GP (Ravn) (Marburg virus, Ravn strain, UniProt Q1PDC7 19-681). Description: cell-based or functional assay.
For B1, the “VSVdG/GP Neutralization” value came out at 40%.
The same measure, in the same setting: under B2 stands 40%; under B3, 50%.
The same measure, in the same setting: next, B4: 50%; B5: 0%.
Still for that read-out and setting: under B6 stands 5%.

The target of the next assay is T2, MARV Ci67 GPe (Marburg virus, Ci67 strain, UniProt P35254 19-637).
T2 sequence: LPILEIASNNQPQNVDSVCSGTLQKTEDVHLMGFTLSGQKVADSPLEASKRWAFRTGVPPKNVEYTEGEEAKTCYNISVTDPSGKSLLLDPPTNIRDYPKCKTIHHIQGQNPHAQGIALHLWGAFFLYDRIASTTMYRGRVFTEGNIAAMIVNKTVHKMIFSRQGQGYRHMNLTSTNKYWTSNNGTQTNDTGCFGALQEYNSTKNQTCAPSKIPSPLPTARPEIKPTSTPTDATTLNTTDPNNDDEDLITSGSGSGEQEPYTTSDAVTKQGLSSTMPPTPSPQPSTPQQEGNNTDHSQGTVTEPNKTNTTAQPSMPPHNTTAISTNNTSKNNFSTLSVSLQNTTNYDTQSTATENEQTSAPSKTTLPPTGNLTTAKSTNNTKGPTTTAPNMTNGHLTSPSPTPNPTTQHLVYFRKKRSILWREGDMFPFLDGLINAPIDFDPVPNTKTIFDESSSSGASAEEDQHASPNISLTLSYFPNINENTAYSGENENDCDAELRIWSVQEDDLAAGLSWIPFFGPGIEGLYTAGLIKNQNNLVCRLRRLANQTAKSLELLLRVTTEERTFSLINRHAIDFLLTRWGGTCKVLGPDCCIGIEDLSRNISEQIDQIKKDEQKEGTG
Description: ELISA on coated antigen (FIG. 2). For orientation: An ELISA detects its analyte on a solid surface through an enzyme-linked reagent.
With B1, the binding result was “no binding”.
On to B2, for which the binding result is given as “no binding”.
Still for that read-out and setting: next, B3: “binds”; B4: “no binding”.
Take B5: the binding result is “binds”.
For the molecule B6, the binding result is reported as “binds”.

For the next assay, the target named is T3, MARV Musoke GPe (Marburg virus, Musoke strain, UniProt P35253 19-637).
T3 sequence: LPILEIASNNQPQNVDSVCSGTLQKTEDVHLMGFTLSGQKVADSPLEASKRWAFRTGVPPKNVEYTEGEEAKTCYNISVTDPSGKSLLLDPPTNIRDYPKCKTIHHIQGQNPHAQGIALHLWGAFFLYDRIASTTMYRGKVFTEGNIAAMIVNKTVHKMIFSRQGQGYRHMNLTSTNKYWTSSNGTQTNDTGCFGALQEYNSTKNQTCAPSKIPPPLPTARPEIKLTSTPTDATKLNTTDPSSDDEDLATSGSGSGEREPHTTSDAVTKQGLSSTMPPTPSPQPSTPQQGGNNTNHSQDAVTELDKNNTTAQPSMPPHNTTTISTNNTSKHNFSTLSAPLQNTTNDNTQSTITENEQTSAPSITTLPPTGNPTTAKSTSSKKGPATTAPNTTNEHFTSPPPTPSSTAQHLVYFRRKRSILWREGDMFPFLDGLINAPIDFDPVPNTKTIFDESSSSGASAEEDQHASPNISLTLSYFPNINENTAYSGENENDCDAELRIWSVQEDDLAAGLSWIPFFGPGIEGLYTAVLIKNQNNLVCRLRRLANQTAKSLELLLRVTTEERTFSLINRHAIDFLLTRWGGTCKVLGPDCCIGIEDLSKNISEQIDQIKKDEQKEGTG
Description: ELISA on coated antigen (FIG. 2).
With B1, the binding result is “no binding”.
Regarding B2, the binding result is given as “no binding”.
For B3, the binding result is on record as “binds”.
Still for that read-out and setting: under B4 stands “no binding”; under B5, “binds”; under B6, “binds”.

The target in a further assay is T4, MARV Angola GPe (Marburg virus, Angola strain, UniProt Q1PD50 19-637).
T4 sequence: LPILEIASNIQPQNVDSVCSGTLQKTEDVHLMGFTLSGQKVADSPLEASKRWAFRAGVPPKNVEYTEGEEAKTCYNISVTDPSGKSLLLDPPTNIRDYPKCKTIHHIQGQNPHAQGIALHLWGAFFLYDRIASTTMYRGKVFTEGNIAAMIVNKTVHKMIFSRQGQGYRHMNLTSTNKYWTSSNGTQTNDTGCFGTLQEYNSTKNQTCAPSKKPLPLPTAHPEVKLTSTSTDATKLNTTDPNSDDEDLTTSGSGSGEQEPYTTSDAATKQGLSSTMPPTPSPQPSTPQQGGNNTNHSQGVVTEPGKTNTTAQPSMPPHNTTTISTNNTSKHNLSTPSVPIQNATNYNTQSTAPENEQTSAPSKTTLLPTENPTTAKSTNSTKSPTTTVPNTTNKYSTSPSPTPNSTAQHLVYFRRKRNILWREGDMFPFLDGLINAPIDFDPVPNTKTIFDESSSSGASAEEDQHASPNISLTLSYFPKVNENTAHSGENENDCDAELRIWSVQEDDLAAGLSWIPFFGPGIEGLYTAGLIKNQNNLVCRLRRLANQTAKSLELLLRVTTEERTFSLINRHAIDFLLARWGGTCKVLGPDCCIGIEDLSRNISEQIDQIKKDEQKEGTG
Description: ELISA on coated antigen (FIG. 2).
Consider B1, for which the binding result is “no binding”.
Same read-out and setting: under B2 stands “no binding”.
Same read-out and setting: next, B3: “binds”; B4: “no binding”; B5: “binds”.
Still for that read-out and setting: next, B6: “binds”.

Another assay has as its target T1, Marburg virus GP (Ravn). Description: cell-based or functional assay. The source holds these as a separate data set.
With B1, the “neutralization of mucin containing (full length) MARV GP-pseudotyped VSV” value is roughly 50%.
Same read-out and setting: under B2 stands roughly 50%; under B4, roughly 50%.
